± gives the standard deviation of the averaged measurements.
B1: library; a variant is named by its letters at N, in order (parent)
chain: GCUGUCACCGGUGCUUGGUACGUUAUAUUCAGCCGGUCUGAUGAGUCUNNNNNNAGACGAAACAGC

Tests used:
[1] = variants of: B1; experiment: FACS-Seq fitted mean relative fluorescence mCherry/BFP without ligand (log10 relative fluorescence); HEK293T overexpressing SLC46A1; higher = higher reporter protein expression; conditions: without (6R,S)-folinic acid; ligand present: no
In short: (§1)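 Fluorescence comes from a normal fit to bin counts, normalized against controls. HEK293T libraries lentivirally given a ribozyme-switch mCherry reporter and an EF1α-BFP marker were enriched, incubated 48 h with or without ligand, and sorted by mCherry/BFP into 6 bins. Bin genomic DNA was PCR-amplified, barcoded and sequenced on MiSeq. The log10(mCherry/BFP) mean was scaled to five spiked-in control ribozymes.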

[2] = variants of: B1; experiment: normalized RNA/DNA level without ligand (relative to sTRSVctl = 100) (log10 (% of sTRSVctl)); HEK293T overexpressing SLC46A1; higher = less ribozyme self-cleavage, higher mRNA level; conditions: without (6R,S)-folinic acid; ligand present: no
In short: (§2)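 Ribozyme switch library plasmids linked to reporters were introduced into HEK293T cells at 4 µg per 6-well well, with ligand, if any, added 1 h before. Total RNA was extracted with EDTA 72 h later, reverse-transcribed, amplified, barcoded and sequenced. RNA level was computed from RNA over DNA reads relative to a spiked-in non-cleaving sequence or the top sequences, then scaled and log-transformed. The top set was 25 sequences, values were ×100 and log10, and the cutoff was ≥100 DNA reads.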

[3] = variants of: B1; experiment: FACS-Seq fitted mean relative fluorescence mCherry/BFP with ligand (log10 relative fluorescence); HEK293T overexpressing SLC46A1; ligand concentration (+) FACS-Seq: 6 mM; higher = higher reporter protein expression; conditions: with (6R,S)-folinic acid; ligand present: yes
In short: as §1

[4] = variants of: B1; experiment: normalized RNA/DNA level with ligand (relative to sTRSVctl = 100) (log10 (% of sTRSVctl)); HEK293T overexpressing SLC46A1; ligand concentration (+) RNA-Seq: 6 mM; higher = less ribozyme self-cleavage, higher mRNA level; conditions: with (6R,S)-folinic acid; ligand present: yes
In short: as §2

| Variant | FACS-Seq fitted mean (log10) [1] | normalized RNA/DNA level without ligand (log10) [2] | FACS-Seq fitted mean (log10) [3] | normalized RNA/DNA level with ligand (log10) [4] |
| --- | --- | --- | --- | --- |
| UGUUUG | 0.222 ± 0.04 | 1.794 ± 0.0043 | 0.62 ± 0.05 | 2.01 ± 0.025 |
| UGUUUU | 0.296 ± 0.18 | 1.985 ± 0.0066 | 0.546 ± 0.13 | 2.03 ± 0.023 |
| CUAAAA | 0.151 ± 0.029 | 1.98 ± 0.021 | 0.19 ± 0.12 | 1.98 ± 0.048 |
| GUAAAA | 0.0987 ± 0.013 | 1.998 ± 0.0036 | -0.0576 ± 0.026 | 1.96 ± 0.046 |
| UUAAAA | 0.578 ± 0.062 | 1.9319 ± 0.0016 | 0.669 ± 0.26 | 1.966 ± 0.017 |
| AUAAAA | 0.343 ± 0.0039 | 1.9901 ± 0.0019 | 0.263 ± 0.23 | 1.994 ± 0.016 |
| GUAAAC | 0.139 ± 0.033 | 1.965 ± 0.0075 | 0.507 ± 0.47 | 2.04 ± 0.0061 |
| UUAAAC | 0.248 ± 0.093 | 1.984 ± 0.0098 | 0.271 ± 0.092 | 1.99 ± 0.031 |
| AUAAAC | -0.0226 ± 0.13 | 1.998 ± 0.0043 | -0.127 ± 0.3 | 1.99 ± 0.026 |
| CUAAAG | -0.0676 ± 0.063 | 1.913 ± 0.0067 | -0.0285 ± 0.2 | 2 ± 0.035 |
| UUAAAG | 0.413 ± 0.085 | 1.822 ± 0.008 | 0.519 ± 0.17 | 1.94 ± 0.042 |
| AUAAAG | 0.418 ± 0.03 | 1.901 ± 0.0089 | 0.417 ± 0.016 | 2 ± 0.036 |
| GUAAAU | 0.332 ± 0.13 | 1.971 ± 0.0055 | 0.464 ± 0.033 | 2.003 ± 0.0095 |
| AUAAAU | 0.45 ± 0.08 | 1.951 ± 0.017 | 0.359 ± 0.082 | 2.028 ± 0.007 |
| AUAACA | 0.394 ± 0.16 | 2 ± 0.017 | 0.263 ± 0.35 | 1.98 ± 0.033 |
| GUAACC | 0.499 ± 0.17 | 2.059 ± 0.0095 | 0.419 ± 0.081 | 2.053 ± 0.017 |
| AUAACC | -0.122 ± 0.045 | 2.011 ± 0.015 | -0.194 ± 0.26 | 2 ± 0.034 |
| AUAACU | -0.545 ± 0.34 | 2.009 ± 0.007 | -0.619 ± 0.76 | 2.02 ± 0.038 |
| UUAAGA | 0.166 ± 0.039 | 1.95 ± 0.024 | 0.272 ± 0.014 | 2.04 ± 0.029 |
| GUAAGC | 0.239 ± 0.059 | 1.896 ± 0.0061 | 0.33 ± 0.072 | 2.01 ± 0.013 |
| AUAAGC | 0.38 ± 0.1 | 2.003 ± 0.0058 | 0.792 ± 0.04 | 2.02 ± 0.042 |
| GUAAGG | 0.183 ± 0.078 | 1.946 ± 0.015 | 0.381 ± 0.047 | 2.025 ± 0.015 |
| UUAAGG | 0.0635 ± 0.0074 | 1.855 ± 0.0022 | 0.25 ± 0.22 | 1.98 ± 0.025 |
| AUAAGG | 0.0495 ± 0.016 | 1.882 ± 0.011 | 0.356 ± 0.25 | 1.99 ± 0.012 |

| Variant | FACS-Seq fitted mean (log10) [1] | normalized RNA/DNA level without ligand (log10) [2] | FACS-Seq fitted mean (log10) [3] | normalized RNA/DNA level with ligand (log10) [4] |
| --- | --- | --- | --- | --- |
| CUAAGU | 0.502 ± 0.033 | 2 ± 0.022 | 0.535 ± 0.079 | 1.995 ± 0.0037 |
| AUAAGU | 0.346 ± 0.17 | 1.88 ± 0.024 | 0.682 ± 0.15 | 2.01 ± 0.044 |
| CUAAUA | 0.179 ± 0.11 | 1.974 ± 0.0043 | 0.335 ± 0.36 | 1.982 ± 0.007 |
| GUAAUA | -0.154 ± 0.025 | 1.996 ± 0.006 | 0.161 ± 0.059 | 1.97 ± 0.039 |
| UUAAUA | 0.0221 ± 0.032 | 2.006 ± 0.0071 | 0.171 ± 1.6 | 2.02 ± 0.022 |
| AUAAUA | 0.469 ± 0.017 | 1.982 ± 0.0023 | 0.369 ± 0.62 | 1.992 ± 0.015 |
| GUAAUC | 0.0594 ± 0.051 | 2.09 ± 0.023 | -0.00665 ± 0.0039 | 2.063 ± 0.0092 |
| GUAAUG | 0.394 ± 0.16 | 1.94 ± 0.023 | 0.532 ± 0.053 | 1.98 ± 0.038 |
| UUAAUG | 0.316 ± 0.0067 | 1.819 ± 0.0065 | 0.461 ± 0.14 | 1.97 ± 0.012 |
| AUACAA | 0.428 ± 0.07 | 1.974 ± 0.0047 | 0.215 ± 0.014 | 1.99 ± 0.035 |
| GUACAC | 0.175 ± 0.17 | 1.984 ± 0.01 | 0.311 ± 0.16 | 2.029 ± 0.019 |
| GUACAG | 0.519 ± 0.15 | 1.938 ± 0.018 | 0.81 ± 0.0085 | 2 ± 0.024 |
| AUACAG | 0.453 ± 0.1 | 1.9374 ± 0.0012 | 0.394 ± 0.44 | 2 ± 0.028 |
| AUACAU | 0.534 ± 0.18 | 1.96 ± 0.022 | 0.452 ± 0.056 | 2.017 ± 0.02 |
| AUACCA | -0.158 ± 0.032 | 2.036 ± 0.01 | -0.268 ± 0.23 | 2.01 ± 0.043 |
| UUACCC | 0.388 ± 0.015 | 2.018 ± 0.015 | 0.263 ± 0.21 | 2.01 ± 0.03 |
| GUACGA | 0.269 ± 0.031 | 2.0027 ± 0.0013 | 0.139 ± 0.31 | 2.04 ± 0.051 |
| GUACGG | 0.245 ± 0.024 | 1.953 ± 0.0076 | 0.584 ± 0.19 | 2.03 ± 0.032 |
| AUACGG | 0.263 ± 0.033 | 1.919 ± 0.0086 | 0.367 ± 0.16 | 1.98 ± 0.02 |
| UUACGU | 0.339 ± 0.078 | 1.97 ± 0.0066 | 0.15 ± 0.074 | 2.01 ± 0.044 |
| GUACUA | 0.314 ± 0.17 | 2.046 ± 0.0037 | 0.428 ± 0.14 | 2.04 ± 0.026 |
| GUACUC | 0.541 ± 0.13 | 2.051 ± 0.016 | 0.366 ± 0.17 | 2.041 ± 0.013 |
| AUACUC | 0.248 ± 0.028 | 2.049 ± 0.0056 | 0.188 ± 0.18 | 2.03 ± 0.037 |
| UUACUG | -0.466 ± 0.24 | 1.902 ± 0.011 | -0.804 ± 0.28 | 2.01 ± 0.066 |

| Variant | FACS-Seq fitted mean (log10) [1] | normalized RNA/DNA level without ligand (log10) [2] | FACS-Seq fitted mean (log10) [3] | normalized RNA/DNA level with ligand (log10) [4] |
| --- | --- | --- | --- | --- |
| GUACUU | 0.484 ± 0.059 | 2.034 ± 0.015 | 0.386 ± 0.2 | 2.04 ± 0.06 |
| GUAGAA | 0.384 ± 0.0046 | 1.954 ± 0.0058 | 0.522 ± 0.23 | 1.995 ± 0.0074 |
| UUAGAA | 0.323 ± 0.038 | 1.913 ± 0.0022 | 0.278 ± 0.054 | 1.98 ± 0.038 |
| AUAGAC | 0.4594 ± 0.0035 | 1.968 ± 0.0041 | 0.536 ± 0.13 | 1.98 ± 0.017 |
| AUAGAG | 0.0276 ± 0.0023 | 1.52 ± 0.0028 | 0.431 ± 0.14 | 1.89 ± 0.034 |
| GUAGAG | 0.201 ± 0.057 | 1.759 ± 0.015 | 0.87 ± 0.12 | 1.98 ± 0.035 |
| UUAGAG | 0.029 ± 0.12 | 1.7074 ± 0.0017 | 0.476 ± 0.11 | 1.95 ± 0.045 |
| AUAGAU | 0.365 ± 0.1 | 1.925 ± 0.011 | 0.406 ± 0.1 | 2 ± 0.054 |
| CUAGAU | 0.368 ± 0.079 | 1.957 ± 0.0032 | 0.387 ± 0.061 | 2 ± 0.028 |
| GUAGAU | 0.516 ± 0.029 | 1.9541 ± 0.0012 | 0.494 ± 0.37 | 1.98 ± 0.047 |
| AUAGCA | 0.356 ± 0.058 | 1.9776 ± 0.00078 | 0.516 ± 0.016 | 2.03 ± 0.028 |
| UUAGCA | -0.108 ± 0.12 | 1.9803 ± 0.0011 | -0.232 ± 0.1 | 2.0126 ± 0.00039 |
| AUAGCC | 0.385 ± 0.019 | 2.036 ± 0.0053 | 0.591 ± 0.43 | 2.03 ± 0.051 |
| AUAGCG | 0.172 ± 0.0027 | 1.664 ± 0.015 | 0.461 ± 0.046 | 1.96 ± 0.045 |
| GUAGCU | 0.643 ± 0.11 | 2.009 ± 0.01 | 0.287 ± 0.14 | 1.998 ± 0.0026 |
| UUAGGA | 0.674 ± 0.033 | 1.879 ± 0.014 | 0.677 ± 0.022 | 2 ± 0.045 |
| AUAGGC | 0.336 ± 0.054 | 2.013 ± 0.012 | 0.59 ± 0.1 | 2.047 ± 0.016 |
| CUAGGC | 0.0076 ± 0.12 | 2.005 ± 0.0013 | 0.186 ± 0.24 | 2 ± 0.028 |
| UUAGGC | 0.366 ± 0.0042 | 1.974 ± 0.0042 | 0.465 ± 0.26 | 2 ± 0.058 |
| AUAGGG | -0.255 ± 0.066 | 1.599 ± 0.0044 | 0.286 ± 0.019 | 1.92 ± 0.025 |
| GUAGGG | 0.666 ± 0.045 | 1.881 ± 0.0094 | 0.643 ± 0.24 | 1.99 ± 0.024 |
| UUAGGG | 0.0949 ± 0.0093 | 1.776 ± 0.008 | 0.324 ± 0.11 | 2 ± 0.021 |
| AUAGGU | 0.477 ± 0.19 | 1.87 ± 0.023 | 0.695 ± 0.3 | 2.01 ± 0.047 |

Source: the supplement of paper PMC6757056
